According to the supplement of paper PMC12042874:
± gives the uncertainty stated by the source.

Test: amyloid nucleation score (Sup35N fusion, yeast selection) (log enrichment); library NNK3; higher = more nucleation; inactive = no reads after selection
Procedure, shortened: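 Growth for 7 days at 30°C on medium lacking adenine and uracil followed a 24-hour induction with 100 μM copper sulfate of psi-negative yeast expressing peptides of 20 random codons fused to Sup35N. Input and output plasmid inserts were sequenced with Illumina, and sequences with under 100 input reads were excluded. Nucleation score is the DiMSum log enrichment of output over input reads, centred on the mode score of non-aggregating sequences.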

| Substance | amyloid nucleation score |
| --- | --- |
| LYREFVWMEVCVCRWG | inactive |
| MLITSMLCIHV | inactive |
| MLLFACQRLQLVALLGARML | inactive |
| TDETSGRSLGVVWEHHAMNH | inactive |
| WFNTTNSGVEP | inactive |
| QYRGCG | inactive |
| FWAYERVGSRSAFGWLGREA | 0.705 ± 0.21 |
| NLLVFDACHGVIRYGKTRVA | inactive |
| NGPEGSLFDLSDFCHFCLNR | 0.955 ± 0.14 |
| VKVCEVSMQNRIFTGHAHFS | inactive |
| EWVALNSSYLWYCPVM | inactive |
| FCLMHRRWMVVCACIYRWLK | inactive |
| NFLSSNFKKALHLFPISDCN | inactive |
| SLDLENILSAE | inactive |
| YMGILCMGLLNSKW | -0.606 ± 0.76 |
| TLTGVPAGSTT | inactive |
| ERVTRSMWTVGKRYRTGK | inactive |
| VWPFPRFRILVKYSFFLGIW | -0.232 ± 0.48 |
| RMIASAFFADCEKYVVNNLE | 0.028 ± 0.43 |
| RKLCINGCVFTAMREFC | inactive |
| LLTFSMVDKFLSDNSYLNGI | inactive |
| CLHEDCRMTADSLPSLRKDR | inactive |

| Substance | amyloid nucleation score |
| --- | --- |
| LDAWRWMSLTADYGKSLVTR | inactive |
| YFQLLVSLVSVFH | inactive |
| QSLLSVGEWNAQHMSLSSGR | inactive |
| VMFRCN | inactive |
| ISMSNHWLLLVICNDEWDLP | -0.06 ± 0.7 |
| CFCYSLDSLLQVGNNS | inactive |
| RWDFTSDSISRILTPLNVAK | 0.836 ± 0.13 |
| LSYHTCSVMYALRMSALDCR | inactive |
| YGEFDTLQW | inactive |
| YDVTSDR | inactive |
| NYPSYSMHNDIFYAFNFSIS | 2.17 ± 0.084 |
| LWNFYSDCNGVPQDESLVEG | inactive |
| RMKGFEFCCWDQ | -0.31 ± 0.55 |
| TTDFSNMLDLSGVKVSGVLP | inactive |
| SVIILSCND | inactive |
| LCRLPLDQTSKPIVTTYAGR | inactive |
| RGWVPVTVIQWIMIDCQFKA | 2.78 ± 0.054 |
| YLNSDYSMKFTRWY | 1.1 ± 0.12 |
| YLYFV | inactive |
| MSFRRIFSSLIYSLRRSSAN | inactive |
| ESDFRLYSCFDWNVVAMNYR | 1.44 ± 0.074 |
| FLRFWARSNPGTWLIVHGMG | -0.69 ± 1.4 |

| Substance | amyloid nucleation score |
| --- | --- |
| CRCPSYMFHA | 0.703 ± 0.17 |
| SSERSGRRRNWSVRSCLVGQ | inactive |
| RQLFWPTPINNFSVVNGILL | inactive |
| DDDLHWWKYRCVACDSLWEI | inactive |
| HFLFVMSCPKWAVRFLAFVD | inactive |
| NGVVLLQIKIRDPRSCWWGV | inactive |
| FNANI | 0.12 ± 0.34 |
| GNIFRRYTVPSDANTKTWIY | inactive |
| DPTSLGRQRLTRDKIPQNWS | inactive |
| KLSDDRKTRCNYYFMGLVVV | inactive |
| KGLYV | inactive |
| AQSGVPRGAPGLAFDSVPHK | inactive |
| PYESHDEGQGNATM | inactive |
| AQSYSCFRNHFTDAVVCVFS | -0.496 ± 1.5 |
| HLRCFKMKFNSHFLVWGAGA | inactive |
| LVRCRVVWDLL | inactive |
| IYGWGRRFRTRR | inactive |
| TRHWDVRSRISRTLVCFGLK | inactive |
| NVSLVTVWWDNHY | inactive |
| SSGAQQCILISSLVLNEDWL | -0.46 ± 0.76 |
| HPVKLILILIWPAFERSRCG | inactive |
| TCVIKGGCCGLN | -0.955 ± 2.5 |
